In patent US20250304644A1, “PEPTIDES TRIPLE AGONISTS OF GIP, GLP-1 AND GLP-2” (BAINAN BIOTECH APS, priority 2021, published 2025):
Where no end group is shown, it is not given here. [ ]: non-standard residue; d: D form. The star is where a group is joined. Decanoyl = CCCCCCCCCC(=O)*; Aib = CC(C)(N)C(=O)O

Tests used:
Test in all cases: cell-based or functional assay
[1] = biological target: human GLP-1R (glucagon-like peptide-1 receptor) (human, UniProt P43220 24-463)
[2] = biological target: T1, human GLP-2R (glucagon-like peptide-2 receptor) (human, UniProt O95838 1-553)
T1 sequence (looked up): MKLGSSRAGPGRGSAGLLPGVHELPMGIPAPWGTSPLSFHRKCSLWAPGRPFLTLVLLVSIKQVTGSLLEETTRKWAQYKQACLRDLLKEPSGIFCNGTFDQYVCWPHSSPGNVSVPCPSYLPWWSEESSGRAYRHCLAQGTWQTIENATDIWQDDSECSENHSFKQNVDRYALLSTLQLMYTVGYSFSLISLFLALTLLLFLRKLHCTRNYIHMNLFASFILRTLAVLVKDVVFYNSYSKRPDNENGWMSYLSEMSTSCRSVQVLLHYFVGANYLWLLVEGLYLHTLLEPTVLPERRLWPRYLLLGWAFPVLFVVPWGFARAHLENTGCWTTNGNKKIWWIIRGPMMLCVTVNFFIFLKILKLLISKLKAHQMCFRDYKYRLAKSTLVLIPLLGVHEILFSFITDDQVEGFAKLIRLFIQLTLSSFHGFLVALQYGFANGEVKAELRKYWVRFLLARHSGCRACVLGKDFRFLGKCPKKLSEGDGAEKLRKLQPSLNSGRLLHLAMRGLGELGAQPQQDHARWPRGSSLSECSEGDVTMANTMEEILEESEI

[3] = biological target: T2, human GIPR (glucose-dependent insulinotropic polypeptide receptor) (human, UniProt P48546 22-466)
T2 sequence (looked up): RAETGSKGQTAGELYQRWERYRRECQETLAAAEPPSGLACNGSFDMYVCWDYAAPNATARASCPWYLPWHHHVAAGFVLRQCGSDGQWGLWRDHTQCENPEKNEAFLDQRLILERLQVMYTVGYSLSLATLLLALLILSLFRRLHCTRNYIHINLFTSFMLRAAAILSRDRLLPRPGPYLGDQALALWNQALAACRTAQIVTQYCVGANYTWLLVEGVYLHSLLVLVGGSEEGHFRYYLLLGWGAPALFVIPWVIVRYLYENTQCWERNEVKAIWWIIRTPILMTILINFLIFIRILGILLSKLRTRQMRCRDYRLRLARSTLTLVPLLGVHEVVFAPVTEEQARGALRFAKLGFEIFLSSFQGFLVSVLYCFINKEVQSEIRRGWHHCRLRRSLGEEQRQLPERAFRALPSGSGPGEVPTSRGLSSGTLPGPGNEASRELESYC

| Binder | EC50 (nM) GLP-1R [1] | Efficacy GLP-1R [1] | logEC50 GLP-1R [1] | EC50 (nM) GLP-2R [2] | Efficacy GLP-2R [2] | logEC50 GLP-2R [2] | EC50 (nM) GIPR [3] | Efficacy GIPR [3] | pEC50 GIPR [3] |
| --- | --- | --- | --- | --- | --- | --- | --- | --- | --- |
| H[Aib]DGTFISDYSTILDLLAARDFINWLIQTKITK(Decanoyl)-NH2 (N-terminus assumed; SMILES CCCCCCCCCC(=O)NCCCC[C@H](NC(=O)[C@@H](NC(=O)[C@@H](NC(=O)[C@H](CCCCN)NC(=O)[C@@H](NC(=O)[C@H](CCC(N)=O)NC(=O)[C@@H](NC(=O)[C@H](CC(C)C)NC(=O)[C@H](Cc1c[nH]c2ccccc12)NC(=O)[C@H](CC(N)=O)NC(=O)[C@@H](NC(=O)[C@H](Cc1ccccc1)NC(=O)[C@H](CC(=O)O)NC(=O)[C@H](CCCNC(=N)N)NC(=O)[C@H](C)NC(=O)[C@H](C)NC(=O)[C@H](CC(C)C)NC(=O)[C@H](CC(C)C)NC(=O)[C@H](CC(=O)O)NC(=O)[C@H](CC(C)C)NC(=O)[C@@H](NC(=O)[C@@H](NC(=O)[C@H](CO)NC(=O)[C@H](Cc1ccc(O)cc1)NC(=O)[C@H](CC(=O)O)NC(=O)[C@H](CO)NC(=O)[C@@H](NC(=O)[C@H](Cc1ccccc1)NC(=O)[C@@H](NC(=O)CNC(=O)[C@H](CC(=O)O)NC(=O)C(C)(C)NC(=O)[C@@H](N)Cc1c[nH]cn1)[C@@H](C)O)[C@@H](C)CC)[C@@H](C)O)[C@@H](C)CC)[C@@H](C)CC)[C@@H](C)CC)[C@@H](C)O)[C@@H](C)CC)[C@@H](C)O)C(N)=O) [Compound 4] | 25.1 nM | 82 | 7.6 | 28.2 nM | 92 | 7.6 | 1.12 nM | 102 | 9 |
| H-H[Aib]DGTFISDYSTILENLAARDFINWLIQTKITK(Decanoyl)-NH2 (SMILES CCCCCCCCCC(=O)NCCCC[C@H](NC(=O)[C@@H](NC(=O)[C@@H](NC(=O)[C@H](CCCCN)NC(=O)[C@@H](NC(=O)[C@H](CCC(N)=O)NC(=O)[C@@H](NC(=O)[C@H](CC(C)C)NC(=O)[C@H](Cc1c[nH]c2ccccc12)NC(=O)[C@H](CC(N)=O)NC(=O)[C@@H](NC(=O)[C@H](Cc1ccccc1)NC(=O)[C@H](CC(=O)O)NC(=O)[C@H](CCCNC(=N)N)NC(=O)[C@H](C)NC(=O)[C@H](C)NC(=O)[C@H](CC(C)C)NC(=O)[C@H](CC(N)=O)NC(=O)[C@H](CCC(=O)O)NC(=O)[C@H](CC(C)C)NC(=O)[C@@H](NC(=O)[C@@H](NC(=O)[C@H](CO)NC(=O)[C@H](Cc1ccc(O)cc1)NC(=O)[C@H](CC(=O)O)NC(=O)[C@H](CO)NC(=O)[C@@H](NC(=O)[C@H](Cc1ccccc1)NC(=O)[C@@H](NC(=O)CNC(=O)[C@H](CC(=O)O)NC(=O)C(C)(C)NC(=O)[C@@H](N)Cc1c[nH]cn1)[C@@H](C)O)[C@@H](C)CC)[C@@H](C)O)[C@@H](C)CC)[C@@H](C)CC)[C@@H](C)CC)[C@@H](C)O)[C@@H](C)CC)[C@@H](C)O)C(N)=O) [Compound 7] |  |  |  | 12.6 nM | 97 | 7.9 | 0.794 nM | 96 | 9.1 |
| H-H[Aib]DGTFISDYSTILDNLAAREFINWLIQTKITK(Decanoyl)-NH2 (SMILES CCCCCCCCCC(=O)NCCCC[C@H](NC(=O)[C@@H](NC(=O)[C@@H](NC(=O)[C@H](CCCCN)NC(=O)[C@@H](NC(=O)[C@H](CCC(N)=O)NC(=O)[C@@H](NC(=O)[C@H](CC(C)C)NC(=O)[C@H](Cc1c[nH]c2ccccc12)NC(=O)[C@H](CC(N)=O)NC(=O)[C@@H](NC(=O)[C@H](Cc1ccccc1)NC(=O)[C@H](CCC(=O)O)NC(=O)[C@H](CCCNC(=N)N)NC(=O)[C@H](C)NC(=O)[C@H](C)NC(=O)[C@H](CC(C)C)NC(=O)[C@H](CC(N)=O)NC(=O)[C@H](CC(=O)O)NC(=O)[C@H](CC(C)C)NC(=O)[C@@H](NC(=O)[C@@H](NC(=O)[C@H](CO)NC(=O)[C@H](Cc1ccc(O)cc1)NC(=O)[C@H](CC(=O)O)NC(=O)[C@H](CO)NC(=O)[C@@H](NC(=O)[C@H](Cc1ccccc1)NC(=O)[C@@H](NC(=O)CNC(=O)[C@H](CC(=O)O)NC(=O)C(C)(C)NC(=O)[C@@H](N)Cc1c[nH]cn1)[C@@H](C)O)[C@@H](C)CC)[C@@H](C)O)[C@@H](C)CC)[C@@H](C)CC)[C@@H](C)CC)[C@@H](C)O)[C@@H](C)CC)[C@@H](C)O)C(N)=O) [Compound 8] | 2.24 nM | 98 | 8.7 |  |  |  | 1.12 nM | 99 | 9 |
| H[Aib]DGTFISDYSTILDNIAARDFINWLIQTKITK(Decanoyl)-NH2 (N-terminus assumed; SMILES CCCCCCCCCC(=O)NCCCC[C@H](NC(=O)[C@@H](NC(=O)[C@@H](NC(=O)[C@H](CCCCN)NC(=O)[C@@H](NC(=O)[C@H](CCC(N)=O)NC(=O)[C@@H](NC(=O)[C@H](CC(C)C)NC(=O)[C@H](Cc1c[nH]c2ccccc12)NC(=O)[C@H](CC(N)=O)NC(=O)[C@@H](NC(=O)[C@H](Cc1ccccc1)NC(=O)[C@H](CC(=O)O)NC(=O)[C@H](CCCNC(=N)N)NC(=O)[C@H](C)NC(=O)[C@H](C)NC(=O)[C@@H](NC(=O)[C@H](CC(N)=O)NC(=O)[C@H](CC(=O)O)NC(=O)[C@H](CC(C)C)NC(=O)[C@@H](NC(=O)[C@@H](NC(=O)[C@H](CO)NC(=O)[C@H](Cc1ccc(O)cc1)NC(=O)[C@H](CC(=O)O)NC(=O)[C@H](CO)NC(=O)[C@@H](NC(=O)[C@H](Cc1ccccc1)NC(=O)[C@@H](NC(=O)CNC(=O)[C@H](CC(=O)O)NC(=O)C(C)(C)NC(=O)[C@@H](N)Cc1c[nH]cn1)[C@@H](C)O)[C@@H](C)CC)[C@@H](C)O)[C@@H](C)CC)[C@@H](C)CC)[C@@H](C)CC)[C@@H](C)CC)[C@@H](C)O)[C@@H](C)CC)[C@@H](C)O)C(N)=O) [Compound 15] | 4.73 nM | 90 | 8.3 |  |  |  | 0.794 nM | 98 | 9.1 |
| HXDGTFISDYSTILDNLAARDFINWLIQTKITK (Aib at position 2; K33 acylated with C10, K(C10); C-terminus -OH) [Compound 2] |  | 84 |  |  | 105 |  |  | 99 |  |
